From article PMC9849103 (Nature Communications, 2023) come the findings set out here.

The labels stand for the following.
B1: B2006 (antibody, V domains shown)
VH: EVQLVQSGAEVKKPGESLKISCKGFGSSFTNYWIGWVRQMPGKGLEWMGSVYAGDSDTRYSPSFQGQVTVSADKSITTAYLQWTSLKASDTAMYFCARASQGNYFDFWGQGTLVTVSS
VL: DIQMTQSPSTLSASVGDRVTITCRASQSISRWLAWYQQKPGKAPKLLIYDASILESGVPSRFSGSGSGTDFTLTISSLQPDDYATYYCQQFYSNLYTFGQGTKLEIK
notes: source: 293-6E cells, transfected, purified (Protein G Sepharose)
B2: B1032 (antibody, V domains shown)
VH: EVQLVESGGGLVQPGRSLRLSCEASGFTFEDFAMHWVRQAPGKGLEWVSGVSWNSGTIGYGDSVKGRFIIIRDNAKNSVYLQMNSLRPEDTAFYYCVKDMATYYKDISGTYGMDVWGQGTTVTVSS
VL: SYELTQTPSVSVAPGQTARITCVGNNIGSESVHWYQQKSGRAPVLVVYDDSDRPSGIPERFSGSTSGTTATLIINRVEAGDEAGYYCQVWDASSDHVVFGGGTKLTVL
notes: as for B1
B3: C2488 (antibody, V domains shown)
VH: QVQLVESGGGVVQPGRSLRLSCAASGFTFSTHGMHWVRQAPGKGLEWMAVIYFDGSNKYYADSVKGRFAISRDNSKNTLFLQMNSLRADDTAVYHCATNSAGYGDSYETFDIWGQGTMVSVSS
VL: EIVMTQSPATLSVSPGERATLSCRASHSVGTNLAWYQQKPGQAPRLLIYGAFTRAAGISARFSGSGSGTEFTLTISSLQSEDLAVYYCQQYENWPPYTFGQGTKLEIK
notes: as for B1
B4: B1030 (antibody, V domains shown)
VH: QVQLVQSGAEVKKPGASVRVSCKASGYTFTSYYMHWVRQAPGQGLEWMGIINPSDGGASYAQKFQGRVTMTSDTSTSTVYMELSSLRSEDTAVYYCARALRHHSSGWYSALDFQHWGQGTLVTVSS
VL: not shown
notes: as for B1
B5: B2058 (antibody, V domains shown)
VH: EVQLVESGGGLIQPGGSLRLSCAASGLTVSSNYMSWVRQAPGKGLEWVSVIYPGGSTFYADSVKGRFTISRDNSKNTLYLQLNSLRADDTAVYFCARGDGYTDYYYGLDVWGQGTTVTVSS
VL: DIQLTQSPSSLSASVGDRVTITCRASQSISSYLNWYQQKPGKAPKLLIYAASSLQSGVPSRFSGSGSGTDFTLTISSLQPEDFATYYCQQRGFGQGTKVEIK
notes: as for B1
B6: B1002 (antibody, V domains shown)
VH: QVQLVQSGAEVKKPGSSVKVTCRASGGTFSNLAISWVRQAPGQGLEWMGSIIPMFTISNYAQKLKGRVTITADKSTSTAYMELSSLRSGDTAVYFCASLGSNITVVRGAPITDHHFHYWGQGTLVTVSS
VL: QSALTQPASVSGSPGQSVTISCTGTSSDVGTYNLVSWYQQHPGKAPKLMIYEVSKRPSGVSNRFSGSKSGNTASLTISGLQAEDEADYYCCSYAASSTTHWVFGGGTKLAV
notes: as for B1
B7: B1037 (antibody, V domains shown)
VH: QVQLVQSGAEVKKPGSSVKVSCKASGDTFISYAITWVRQAPGQGLEWMGRIIPILGVADYAPKFQGRVTITADKSTSTAYMELSSLRSEDTAVFYCASWRGREYNGYDWTGPTRGFDSWGQGTLVTVSS
VL: not shown
notes: as for B1
B8: B2014 (antibody, V domains shown)
VH: QVQLVQSGAELKRPGASVKVSCKASGYTFSDYHMNWVRQAPGQGLEWMGIINPSGGGASYPQKFQGRVTMTRDTSTSTVFMQLNSLTYEDTAVYYCARGTPPSRGWYGGFDNWGQGTLVTVSS
VL: QSVLTQPPSVSGAPGQRITISCTGSTSNIGAGYDVQWYQQLPGTAPKLLIFDNNNRPSGVPDRFSGSKSGTSASLAITGLQAEDEADYYCQSFDSTLSGSTFVFGPGTKVTVL
notes: as for B1
B9: C1034 (antibody, V domains shown)
VH: QLQLQESGPGLVKPSETLSLTCTVSGGSVSSNNHYWGWIRQPPGKGLEWIGSISSSGSTHHNPSLRSRVTISVDTSKNHFSLKLNSVTATDTAVYYCARVDSSGWYTGDVFDVWGQGTMVTVSS
VL: DIQMTQSPSSLSASVGDRVTITCRASQTINNYLNWYQQKPGKPPKLLIYAAFSLHSGVPSRFSGSRSGTDFTLTISSLQPEDFATYYCQHSYSTMCSFGQGTKLEIK
notes: as for B1

The assay has as its target WT RBD (SARS-CoV-2 Wuhan-Hu-1 spike receptor binding domain) (SARS-CoV-2 (Wuhan-Hu-1), UniProt P0DTC2). As to the kind of experiment: BLI. The conditions noted are these: both partners purified.
For B1, the affinity, expressed as Kd, was 0.582 nM.

On to B2, for which the dissociation constant Kd came to 0.52 nM. This Kd and that of the molecule before are within 1.5-fold of each other.

Molecule B3 had a dissociation constant (Kd) of 8.95 nM. Compared with the last molecule, the Kd is about 17-fold higher. Consider B4, for which the affinity, expressed as Kd, was 5.06 nM. Take B5: binding was put at a Kd of 1.02 nM. Compared with the last molecule, the Kd is about 5-fold lower. As for B6, binding was put at a Kd of 0.732 nM. The same measure for B7: 3.21 nM; for B8: 1.24 nM; for B9: 1.98 nM.

What is called Kd is a measure of binding affinity in units of concentration.
